Measurements from publication PMC6166713.

Key:
GST-WASP(201–321) L267A = GST-WASP(201–321) L267A (UniProt P42768); test: scintillation proximity assay (SPA); 5 nM GST-WASP variant immobilised on protein A SPA fluoromicrospheres via an anti-GST antibody; varying concentrations of [3H]GTP·Cdc42; direct binding isotherm; apparent Kd; low-salt buffer
GST-WASP(201–321) F244A = GST-WASP(201–321) F244A (UniProt P42768); test: as above
GST-WASP(201–321) V250A = GST-WASP(201–321) V250A (UniProt P42768); test: as above
GST-WASP(201–321) S242A = GST-WASP(201–321) S242A (UniProt P42768); test: as above
GST-WASP(201–254) = GST-WASP(201–254) (UniProt P42768); test: as above
[1] = molecular target: GST-WASP(201–321) wild type (UniProt P42768); test: as above
GST-WASP(201–321) I233A = GST-WASP(201–321) I233A (UniProt P42768); test: as above
GST-WASP(201–321) P241A = GST-WASP(201–321) P241A (UniProt P42768); test: as above
GST-WASP(201–321) F271A = GST-WASP(201–321) F271A (UniProt P42768); test: as above
GST-WASP(201–321) G251A = GST-WASP(201–321) G251A (UniProt P42768); test: as above
GST-WASP(201–321) H249A = GST-WASP(201–321) H249A (UniProt P42768); test: as above
GST-WASP(201–321) W252A = GST-WASP(201–321) W252A (UniProt P42768); test: as above
[2] = molecular target: GST-WASP(201–321) K225A/K226A/R227A (UniProt P42768); test: BLI; Octet Red; GST-WASP variants loaded on anti-GST sensors (10 μg/ml), dipped into a dilution range of Cdc42·GMPPNP; 50 mM Tris-HCl pH 7.5, 150 mM NaCl, 1 mM MgCl2, 0.02% Tween 20, 0.1% BSA, 0.05% sodium azide, 25 °C; GST-alone sensors subtracted
[3] = molecular target: GST-WASP(201–321) K230A/K232A (UniProt P42768); test: as above
GST-WASP(201–321) K225A = GST-WASP(201–321) K225A (UniProt P42768); test: as above
[4] = molecular target: GST-WASP(201–321) K225A/K226A (UniProt P42768); test: as above
GST-WASP(201–321) R227A = GST-WASP(201–321) R227A (UniProt P42768); test: as above

## Cdc42 Δ7 Q61L (from UniProt P60953 1-191) (natural protein)
GST-WASP(201–321) L267A
  Kd: 3.2 nM
GST-WASP(201–321) F244A
  Kd: 64.9 nM
GST-WASP(201–321) V250A
  Kd: 10.1 nM
GST-WASP(201–321) S242A
  Kd: 6.4 nM
GST-WASP(201–254)
  Kd: 31.8 nM
[1]
  Kd: 0.5 nM
GST-WASP(201–321) I233A
  Kd: 26.4 nM
GST-WASP(201–321) P241A
  Kd: 38.3 nM
GST-WASP(201–321) F271A
  Kd: 5 nM
GST-WASP(201–321) G251A
  Kd: 5.2 nM
GST-WASP(201–321) H249A
  Kd: 43.1 nM
GST-WASP(201–321) W252A
  Kd: 9.6 nM
[2]
  Kd: 79.2 nM
  koff: 0.042 s⁻¹
  kon: 540000 M⁻¹ s⁻¹
[3]
  Kd: 142 nM
  koff: 0.067 s⁻¹
  kon: 484000 M⁻¹ s⁻¹
GST-WASP(201–321) K225A
  Kd: 83.5 nM
  koff: 0.0468 s⁻¹
  kon: 671000 M⁻¹ s⁻¹
[4]
  Kd: 59.6 nM
  koff: 0.0295 s⁻¹
  kon: 490000 M⁻¹ s⁻¹
GST-WASP(201–321) R227A
  Kd: 49 nM
  koff: 0.0281 s⁻¹
  kon: 630000 M⁻¹ s⁻¹
